{"source": "patent US11198713B2", "about": "“Agents modulating beta-catenin functions and methods thereof” (FOG PHARMACEUTICALS, INC., priority 2017, dated 2021)", "molecules": {"B1": {"name": "FP0777a (peptide)", "peptide": "Ac-PQ[R5]ILD[MI]HVRRVWR-NH2", "modifications": "staple 3-7; also: amino staple (-N(R')-), from carbamate staple by metathesis then Pd(0) CO2 extrusion", "notes": "also called FP-0777 (amino staple)"}, "B2": {"name": "FP0783a (peptide)", "peptide": "Ac-PQ[MI]ILD[R5]HVRRVWR-NH2", "modifications": "staple 3-7; also: amino staple (-N(R')-), from carbamate staple by metathesis then Pd(0) CO2 extrusion", "notes": "also called FP-0783 (amino staple)"}, "B3": {"name": "FP0217c Isomer 2 (peptide)", "peptide": "Ac-A[R8]ILDAHI[MB]RVW-NH2", "modifications": "staple 2-9; also: Isomer 2, staple olefin E/Z not assigned", "notes": "also called FPO217c isomer 2; FP00217c Isomer 2"}, "B4": {"name": "FP0776a (peptide)", "peptide": "Ac-PQ[R5]ILD[MG]HVRRVWR-NH2", "modifications": "staple 3-7; also: amino staple (-N(R')-), from carbamate staple by metathesis then Pd(0) CO2 extrusion", "notes": "also called FP-0776 (amino staple)"}}, "key": {"[1]": {"system": "TCF/LEF Luciferase reporter HEK293 cell lines", "assay": "TCF/LEF reporter assay", "format": "cell-based", "conditions": "Table 2", "description": "FIG. 2. […] FIG. 2 depicts exemplary data from TCF/LEF reporter assays. Y-axes illustrate luminescence, and X-axes illustrate concentrations of peptides. […] TCF/LEF Luciferase reporter HEK293 cell lines (BPS Bioscience) were treated with dilution series of FP0025c and FP00217c Isomer 2 for 18 hours. 300 ng/mL of Wnt3a (Peprotech) was added to the cells for the final 6 hours of incubation. Luciferase activity was measured using Bright-Glo Luciferase Assay (Promega) according to manufacturer's protocol.\nIn some embodiments, a provided assay is a TCF/LEF reporter assay. In some embodiments, in an exemplary such assay, TCF/LEF Luciferase reporter HEK293 cell lines (BPS Bioscience) were treated with dilution series of provided peptides for 18 hours. 300 ng/mL of Wnt3a (Peprotech) was added to the cells for the final 6 hours of incubation. Luciferase activity was measured using Bright-Glo Luciferase Assay (Promega) according to manufacturer's protocol. […] Applicant also notes that teachings of the present disclosure are not restricted to a particular mechanism of action of described agents."}, "[2]": {"biological_target": "T1, full-length beta-catenin (UniProt P35222 2-781, limits assumed)", "T1 construct": "mature; also called full-length ß-Catenin; β-catenin", "T1 sequence (looked up)": "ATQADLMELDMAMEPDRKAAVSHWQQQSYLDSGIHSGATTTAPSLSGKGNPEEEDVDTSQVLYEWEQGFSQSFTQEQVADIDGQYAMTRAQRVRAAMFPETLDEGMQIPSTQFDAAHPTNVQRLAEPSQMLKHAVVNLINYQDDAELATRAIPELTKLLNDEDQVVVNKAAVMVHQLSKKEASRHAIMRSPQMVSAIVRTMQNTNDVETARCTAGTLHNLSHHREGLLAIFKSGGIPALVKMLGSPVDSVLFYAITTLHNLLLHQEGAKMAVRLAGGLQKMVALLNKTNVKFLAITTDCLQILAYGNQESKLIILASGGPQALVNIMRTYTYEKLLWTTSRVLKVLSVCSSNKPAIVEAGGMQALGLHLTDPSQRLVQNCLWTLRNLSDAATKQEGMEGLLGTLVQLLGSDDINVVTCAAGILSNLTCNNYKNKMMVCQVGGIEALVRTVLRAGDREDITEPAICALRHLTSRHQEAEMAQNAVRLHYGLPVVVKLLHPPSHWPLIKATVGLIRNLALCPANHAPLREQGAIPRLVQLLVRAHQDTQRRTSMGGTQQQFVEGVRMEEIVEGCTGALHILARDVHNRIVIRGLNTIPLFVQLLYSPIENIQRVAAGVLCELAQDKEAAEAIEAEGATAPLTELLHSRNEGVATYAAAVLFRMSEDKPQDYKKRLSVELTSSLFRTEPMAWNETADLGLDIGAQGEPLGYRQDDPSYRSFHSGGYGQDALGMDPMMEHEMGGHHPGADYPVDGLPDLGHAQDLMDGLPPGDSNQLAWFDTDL", "assay": "competition FP, grade of FP EC50 (+: 500-5000 nM)", "in_short": "(§1)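 Compound 3-fold serially diluted from 5 µM in Tris pH 8.0, 250 mM NaCl buffer, added to premixed 15 nM full-length β-catenin and 20 nM FITC-labelled stapled axin-site peptide probe. Incubated 15 min in the dark, polarization read in duplicate.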"}, "[3]": {"biological_target": "T1, full-length beta-catenin", "assay": "competition FP; amino staple (acyclic)", "description": "(§2) In some embodiments, a competition fluorescence polarization assay is used to assess binding of provided compounds to beta-catenin. In an exemplary procedure, solutions of provided compounds, e.g., provided stapled peptides, were prepared in a buffer (e.g., 50 mM Tris pH 8.0, 250 mM NaCl, 2% glycerol, 0.5 mM EDTA, 0.02% w/v sodium azide) using a 3-fold serial dilution from 5 µM. Probe solution (15 nM full-length ß-Catenin, 20 nM FITC labeled peptide in buffer) was prepared and incubated for a period of time, e.g., 5 minutes, and the a volume, e.g., 40 µL per well plated in suitable plate, e.g., a black polystyrene 384-well plate (Corning). Equal volume of the serial diluted peptide was added to the plate and incubated protected from light for 15 minutes prior to read. Reads were performed on a Spectramax M5 (Molecular Devices) in duplicate. Suitable probe was FITC-PEG1-PQ-S5-ILD-S5-HVRRVWR (SEQ ID NO: 1) (hydrocarbon staple formed by two S5 via olefin metathesis) and/or FITC-bA-PQ-S5-ILD-S5-HVRRVWR (SEQ ID NO: 3) (hydrocarbon staple formed by two S5 via olefin metathesis). […] Another peptide, FPO217c (Ac-AR_8ILDAHIM$B5$RVW (SEQ ID NO: 280), with N-terminal proline removed and valine replaced with isoleucine compared to FP0025c) was prepared."}, "[4]": {"biological_target": "T2, biotinylated beta-catenin (UniProt P35222 134-665, limits assumed, biotinylated (site not stated))", "T2 construct": "also called beta-catenin (SPR); armadillo domain of β-catenin", "T2 sequence (looked up)": "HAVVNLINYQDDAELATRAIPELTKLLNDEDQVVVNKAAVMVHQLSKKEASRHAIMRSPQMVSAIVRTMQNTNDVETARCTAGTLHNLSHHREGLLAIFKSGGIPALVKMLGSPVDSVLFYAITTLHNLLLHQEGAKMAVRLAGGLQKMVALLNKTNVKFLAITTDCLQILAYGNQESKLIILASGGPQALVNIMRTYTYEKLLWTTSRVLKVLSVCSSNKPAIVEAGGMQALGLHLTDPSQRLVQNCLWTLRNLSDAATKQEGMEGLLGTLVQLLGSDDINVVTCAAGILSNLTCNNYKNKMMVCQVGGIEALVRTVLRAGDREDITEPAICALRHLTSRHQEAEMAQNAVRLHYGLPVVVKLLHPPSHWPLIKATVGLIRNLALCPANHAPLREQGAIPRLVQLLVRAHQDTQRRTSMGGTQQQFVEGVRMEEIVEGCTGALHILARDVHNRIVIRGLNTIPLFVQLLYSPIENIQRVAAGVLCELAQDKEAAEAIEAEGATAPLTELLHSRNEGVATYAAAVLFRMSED", "assay": "Table 3 'Binding Kd (nM)'; method not stated there (SPR in Example 2)", "description": "(§3) Additionally or alternatively, binding to beta-catenin may be measured by Surface Plasmon Resonance. In an exemplary assay, approximately 6 nmol dried peptide diluted in buffer (50 mM Tris pH 8.0, 300 mM NaCl, 2% glycerol, 0.5 mM TCEP, 0.5 mM EDTA, 0.005% Tween-20, 1 mg/mL CM Dextran, 0.02% w/v sodium azide) was assayed on a Biacore X100 using the Biacore Biotin CAPture Kit (GE Healthcare) and biotinylated beta-catenin. Results were analyzed using the Biacore X100 Evaluation Software."}, "[5]": {"biological_target": "T1, full-length beta-catenin", "assay": "competition FP, grade of FP EC50 (++: 100-500 nM)", "in_short": "as §1"}, "[6]": {"biological_target": "T1, full-length beta-catenin", "assay": "competition FP, grade of FP EC50 (+: 500-5000 nM); competition FP vs FITC probe, 15 nM full-length beta-catenin, peptide diluted from 5 µM; grade + (500-5000 nM EC50)", "description": "as §2"}, "[7]": {"biological_target": "T1, full-length beta-catenin", "assay": "competition FP, grade of FP EC50 (+++: <=100 nM)", "in_short": "as §1"}, "[8]": {"biological_target": "T2, biotinylated beta-catenin", "assay": "SPR (Biacore, biotinylated beta-catenin)", "description": "as §3"}, "[9]": {"biological_target": "T1, full-length beta-catenin", "assay": "Axin competition fluorescence polarization; 15 nM full-length beta-catenin, 20 nM FITC-StAx-33 probe displaced by titrated peptide"}, "[10]": {"biological_target": "T1, full-length beta-catenin", "assay": "competition FP", "description": "as §2"}}, "note": "Bridge positions count the residues as written; N and C are the ends. Square brackets hold non-standard residues; d marks the D form. Primed or numbered codes have the meaning given here. Peptide text beside a SMILES is read from it. MB = Monomer B = PyrS, Alloc-pyrrolidine stapling residue (allyl carbamate on pyrrolidine N); MC(3) = Monomer C (PyrR), pyrrolidine stapling residue with N-allyl carbamate; MI = Monomer I = ReN, acyclic amine-bearing olefin stapling residue; MD = Monomer D = SgN, acyclic Alloc-amine olefin stapling residue; MG = Monomer G = RdN, acyclic alkyl-N(Alloc) stapling residue; R8 = C=CCCCCCC[C@@](C)(N)C(=O)O; S8 = C=CCCCCCC[C@](C)(N)C(=O)O; R5 = C=CCCC[C@@](C)(N)C(=O)O; βAla = NCCC(=O)O", "data": [{"molecule": "Ac-P-A-MC-I-L-D-A-H-V-S8-R-V-W-NH2 (Ac-PA[MC(3)]ILDAHV[S8]RVW-NH2; staple 3-10) [FP0099]", "values": [{"measurement": "TCF/LEF Reporter Inhibition at 10 μM", "setting": "[1]", "result": 38, "unit": "%"}]}, {"molecule": "CC[C@H](C)[C@H](NC(=O)[C@H](CO)NC(=O)[C@H](C)NC(=O)[C@@H]1CCCN1C(C)=O)C(=O)N[C@@H](CC(C)C)C(=O)N[C@@H](CC(=O)O)C(=O)N[C@@H](C)C(=O)N[C@@H](Cc1c[nH]cn1)C(=O)N[C@H](C(=O)N[C@@H](CCC(N)=O)C(=O)N[C@@H](CCCNC(=N)N)C(=O)N[C@H](C(=O)N[C@@H](Cc1c[nH]c2ccccc12)C(N)=O)C(C)C)C(C)C", "note": "[FP0098, Ac-P-A-S-I-L-D-A-H-V-Q-R-V-W-NH2] (Ac-PASILDAHVQRVW-NH2)", "values": [{"measurement": "TCF/LEF Reporter Inhibition at 10 μM", "setting": "[1]", "result": 18, "unit": "%"}]}, {"molecule": "B1", "values": [{"measurement": "FP EC50", "setting": "[2]", "result": "500 to 5000", "unit": "nM"}, {"measurement": "EC50", "setting": "[3]", "result": 4750, "unit": "nM"}]}, {"molecule": "Ac-A[R8]ILDAHI[MD]RVW-NH2 (staple 2-9)", "note": "[FP0338c]", "values": [{"measurement": "Kd", "setting": "[4]", "result": 10, "unit": "nM"}, {"measurement": "FP EC50", "setting": "[5]", "result": "100 to 500", "unit": "nM"}]}, {"molecule": "AXILDAHIXRVW (not fully specified; Ac-A-R6-I-L-D-A-H-I-MF-R-V-W-NH2; amino staple R6/MF)", "note": "[FP0502a]", "values": [{"measurement": "FP EC50", "setting": "[6]", "result": "500 to 5000", "unit": "nM"}]}, {"molecule": "B2", "values": [{"measurement": "FP EC50", "setting": "[2]", "result": "500 to 5000", "unit": "nM"}, {"measurement": "EC50", "setting": "[3]", "result": 1400, "unit": "nM"}]}, {"molecule": "H-[βAla]A[R8]ILDAHI[MB]RVW-NH2 (staple 3-10)", "note": "[FP0217c_bAfree]", "values": [{"measurement": "FP EC50", "setting": "[7]", "result": "≤ 100", "unit": "nM"}, {"measurement": "Kd", "setting": "[8]", "result": 9, "unit": "nM"}]}, {"molecule": "AXILDAHIXRVW (not fully specified; Ac-A-MI-I-L-D-A-H-I-S5-R-V-W-NH2; amino staple MI/S5)", "note": "[FP0506a]", "values": [{"measurement": "FP EC50", "setting": "[6]", "result": "500 to 5000", "unit": "nM"}]}, {"molecule": "AXILDAHIXRVW (not fully specified; Ac-A-MG-I-L-D-A-H-I-MB-R-V-W-NH2; carbamate staple MG/MB)", "note": "[FP0597c]", "values": [{"measurement": "FP EC50", "setting": "[7]", "result": "≤ 100", "unit": "nM"}, {"measurement": "Kd", "setting": "[4]", "result": 4, "unit": "nM"}, {"measurement": "EC50 (read off the curve)", "setting": "[9]", "result": "~60", "unit": "nM"}, {"measurement": "Kd", "setting": "[8]", "result": 4, "unit": "nM"}]}, {"molecule": "B3", "values": [{"measurement": "FP EC50", "setting": "[7]", "result": "≤ 100", "unit": "nM"}, {"measurement": "Kd", "setting": "[4]", "result": 4, "unit": "nM"}, {"measurement": "EC50 (read off the curve)", "setting": "[9]", "result": "~70", "unit": "nM"}, {"measurement": "Kd", "setting": "[8]", "result": 2, "unit": "nM"}, {"measurement": "fold better potency than FP0217c Isomer 1", "setting": "[10]", "result": "> 10", "unit": "fold"}]}, {"molecule": "AXILDAHIXRVW (not fully specified; Ac-A-R4-I-L-D-A-H-I-MH-R-V-W-NH2; carbamate staple R4/MH)", "note": "[FP0509c]", "values": [{"measurement": "FP EC50", "setting": "[7]", "result": "≤ 100", "unit": "nM"}, {"measurement": "Kd", "setting": "[4]", "result": 3, "unit": "nM"}, {"measurement": "Kd", "setting": "[8]", "result": 3, "unit": "nM"}]}, {"molecule": "B4", "values": [{"measurement": "FP EC50", "setting": "[2]", "result": "500 to 5000", "unit": "nM"}, {"measurement": "EC50", "setting": "[3]", "result": 580, "unit": "nM"}]}]}
